Measured values reported in patent US20120058118A1 (Boehringer Ingelheim, published 2012).
Changes are numbered by the printed parent chain.

B1: ABII003 (VHH)
VHH: EVQLLESGGGLVLPGGSLRLSCVHSGPTFRTDTMGWFRQAPGKGREFVAAVTWNSGRINYADSVKGRFTVSRDNTRNAAYLQMSGLKDEDTAVYYCTAHRFVVGGNRVEDWRYWGQGTLVTVSS
notes: humanized variant of ABII002
B2: ABII023 (VHH)
VHH: B1 VHH with L13Q, V23A, V70I, T75S, R76K, S84N, G85S, K87R, D88P, T97A
notes: humanized variant of ABII002
B3: ABII036 (VHH)
VHH: B1 VHH with L13Q, V70I, T75S, R76K, A78T, G85S, K87R, D88P, T97A
notes: humanized variant of ABII002
B4: ABII022 (VHH)
VHH: B1 VHH with L13Q, V23A, V70I, T75S, R76K, A79V, G85S, K87R, D88P, T97A
notes: humanized variant of ABII002
B5: ABII033 (VHH)
VHH: B1 VHH with L13Q, V70I, T75S, R76K, G85S, K87R, D88P, T97A
notes: humanized variant of ABII002
B6: ABII030 (VHH)
VHH: B1 VHH with L13Q, V70I, T75S, R76K, A79V, S84N, G85S, K87R, D88P, T97A
notes: humanized variant of ABII002
B7: ABII031 (VHH)
VHH: B1 VHH with L13Q, V70I, T75S, R76K, A79V, G85S, K87R, D88P, T97A
notes: humanized variant of ABII002
B8: ABII024 (VHH)
VHH: B1 VHH with L13Q, V23A, V70I, T75S, R76K, G85S, K87R, D88P, T97A
notes: humanized variant of ABII002
B9: ABII034 (VHH)
VHH: B1 VHH with L13Q, V70I, T75S, R76K, A78T, A79V, G85S, K87R, D88P, T97A
notes: humanized variant of ABII002
B10: ABII032 (VHH)
VHH: B1 VHH with L13Q, V70I, T75S, R76K, S84N, G85S, K87R, D88P, T97A
notes: humanized variant of ABII002
B11: ABII027 (VHH)
VHH: B1 VHH with L13Q, V23A, V70I, T75S, R76K, A78T, G85S, K87R, D88P, T97A
notes: humanized variant of ABII002
B12: ABII008 (VHH)
VHH: B1 VHH with T75S
notes: humanized variant of ABII002
B13: ABII004 (VHH)
VHH: B1 VHH with L13Q
notes: humanized variant of ABII002
B14: ABII014 (VHH)
VHH: B1 VHH with K87R
notes: humanized variant of ABII002
B15: ABII007 (VHH)
VHH: B1 VHH with V70I
notes: humanized variant of ABII002
B16: ABII013 (VHH)
VHH: B1 VHH with G85S
notes: humanized variant of ABII002
B17: ABII010 (VHH)
VHH: B1 VHH with A78T
notes: humanized variant of ABII002
B18: ABII006 (VHH)
VHH: B1 VHH with H24A
notes: humanized variant of ABII002
B19: ABII015 (VHH)
VHH: B1 VHH with D88A
notes: humanized variant of ABII002
B20: ABII011 (VHH)
VHH: B1 VHH with A79L
notes: humanized variant of ABII002
B21: ABII017 (VHH)
VHH: B1 VHH with T97A
notes: humanized variant of ABII002
B22: ABII012 (VHH)
VHH: B1 VHH with S84N
notes: humanized variant of ABII002
B23: ABII009 (VHH)
VHH: B1 VHH with R76K
notes: humanized variant of ABII002
B24: ABII005 (VHH)
VHH: B1 VHH with V23A
notes: humanized variant of ABII002
B25: ABII016 (VHH)
VHH: B1 VHH with D88P
notes: humanized variant of ABII002
B26: ABII018 (VHH)
VHH: B1 VHH with L13Q, D88P
notes: humanized variant of ABII002
B27: ABII051 (VHH)
VHH: EVQLLESGGGLVQPGGSLRLSCAASGRTFNNYNMGWFRQAPGKGREFVAAVSRSGVSTYYADSVKGRFTISRDNAKNAVYLQMNSLRPEDTAIYYCGAAYRGTAINVRRSYDSWGQGTLVTVSS
notes: humanized variant of ABII050
B28: ABII058 (VHH)
VHH: B27 VHH with A75S, A78T, V79L, I93V, G97A
notes: humanized variant of ABII050
B29: ABII054 (VHH)
VHH: B27 VHH with V79L
notes: humanized variant of ABII050
B30: ABII056 (VHH)
VHH: B27 VHH with G97A
notes: humanized variant of ABII050
B31: ABII057 (VHH)
VHH: B27 VHH with A75S, A78T, I93V, G97A
notes: humanized variant of ABII050
B32: ABII052 (VHH)
VHH: B27 VHH with A75S
notes: humanized variant of ABII050
B33: ABII055 (VHH)
VHH: B27 VHH with I93V
notes: humanized variant of ABII050
B34: ABII053 (VHH)
VHH: B27 VHH with A78T
notes: humanized variant of ABII050
B35: ABII060 (VHH)
VHH: B27 VHH with A75S, A78T, V79L, I93V, G97A, D112S
notes: humanized variant of ABII050
B36: ABII019 (VHH)
VHH: EVQLLESGGGLVQPGGSLRLSCAHSGPTFRTDTMGWFRQAPGKGREFVAAVTWNSGRINYADSVKGRFTISRDNSKNTVYLQMNSLRPEDTAVYYCAAHRFVVGGNRVEDWRYWGQGTLVTVSS
notes: humanized variant of ABII002
B37: ABII020 (VHH)
VHH: B36 VHH with V79L
notes: humanized variant of ABII002
B38: ABII025 (VHH)
VHH: B36 VHH with N84S
notes: humanized variant of ABII002
B39: ABII021 (VHH)
VHH: B36 VHH with T78A
notes: humanized variant of ABII002
B40: ABII029 (VHH)
VHH: B36 VHH with A23V, V79L
notes: humanized variant of ABII002
B41: ABII026 (VHH)
VHH: B36 VHH with V79A
notes: humanized variant of ABII002
B42: ABII028 (VHH)
VHH: B36 VHH with A23V
notes: humanized variant of ABII002
B43: ABII037 (VHH)
VHH: B36 VHH with A23V, V79A, P88A
notes: humanized variant of ABII002
B44: ABII061 (VHH)
VHH: B27 VHH with A75S, A78T, I93V, D112S
notes: humanized variant of ABII050
B45: ABII111B5_F101W (VHH)
VHH: B1 VHH with L5V, P14A, G44E, F101W, R107M, L119Q
notes: targeted mutant
B46: ABII111B5_R30W (VHH)
VHH: B1 VHH with L5V, P14A, R30W, G44E, R107M, L119Q
notes: targeted mutant
B47: ABII111B5_N106V (VHH)
VHH: B1 VHH with L5V, P14A, G44E, N106V, R107M, L119Q
notes: targeted mutant
B48: ABII111B5_E109W (VHH)
VHH: B1 VHH with L5V, P14A, G44E, R107M, E109W, L119Q
notes: targeted mutant
B49: ABII111B5_R30K (VHH)
VHH: B1 VHH with L5V, P14A, R30K, G44E, R107M, L119Q
notes: targeted mutant
B50: ABII111B5_N106T (VHH)
VHH: B1 VHH with L5V, P14A, G44E, N106T, R107M, L119Q
notes: targeted mutant

biological target: T1, human A-beta(1-40) peptide, monomeric (BAM) (human, biotin at the C-terminus in capture ELISA, SPR and TR-FRET; not biotinylated where coated directly (Example 7)); experiment: TR-FRET competition, mean IC50
T1 construct: synthetic peptide (Anaspec), TFA/HFIP treated to give monomer; also called monomeric A-beta

Binder	IC50 [nM]
B1	2.1
B2	5.8
B3	3.5
B4	16
B5	4
B6	12
B7	13
B8	6
B9	10
B10	4.9
B11	4.4
B12	1.9
B13	2.1
B14	1.3
B15	1.6
B16	1.6
B17	1.9
B18	80
B19	1.8
B20	24
B21	2.4

Binder	IC50 [nM]
B22	1.5
B23	1.7
B24	3.3
B25	2.4
B26	3.2
B27	18
B28	73
B29	51
B30	29
B31	46
B32	19
B33	22
B34	20
B35	50
B36	14
B37	110
B38	18
B39	24
B40	89
B41	5.1
B42	11

biological target: T1, human A-beta(1-40) peptide, monomeric …; experiment: TR-FRET competition; labelled competitor not given

Binder	IC50 [nM]
B1	2.1
B2	5.8
B3	3.5
B4	16
B5	4
B6	12
B43	3.1
B7	13
B8	6
B9	10
B10	4.9
B11	4.4
B12	1.9
B13	2.1
B14	1.3
B15	1.6
B16	1.6
B17	1.9
B18	80
B19	1.8
B20	24
B21	2.4

Binder	IC50 [nM]
B22	1.5
B23	1.7
B24	3.3
B25	2.4
B26	3.2
B27	18
B28	73
B29	51
B30	29
B31	46
B32	19
B33	22
B34	20
B35	50
B44	2.4
B36	14
B37	110
B38	18
B39	24
B40	89
B41	5.1
B42	11

biological target: T1, human A-beta(1-40) peptide, monomeric …; experiment: TR-FRET competition, labelled ABII42D4

Binder	IC50 [nM]
B45	7.3
B46	5
B47	10
B48	4.7
B49	5.3
B50	9.2
